How the values were obtained:
[1] = target: PorU (Porphyromonas gingivalis W50 (endogenous in OMVs)); assay: native gel or EMSA; 2D BN-PAGE (Coomassie, spots identified by MS, densitometry) of large-scale glycerol gradient fractions F15-F17 of 1% DDM-solubilised OMV lysate of WT W50
[2] = target: PorQ (strain ATCC 33277) (Porphyromonas gingivalis ATCC 33277 (endogenous in OMVs)); assay: native gel or EMSA; details: scale: PorZ per PorQ

Substance: PorQ (natural protein)
- stoichiometry N ([1]; scale: PorQ per PorU): 1

Substance: PorV (natural protein)
- stoichiometry N ([1]; scale: PorV per PorU): 3

Substance: PorZ (natural protein)
- stoichiometry N ([1]; scale: PorZ per PorU): 1

Substance: PorZ (strain ATCC 33277) (natural protein)
- stoichiometry N [2]: 1

Reference: PMC5562754
